According to US20230295310A1 (ABCELLERA BIOLOGICS, published 2023):

Key:
[1] = target: T1, cynomolgus monkey CD3 expressed on cyno primary T cells (cynomolgus monkey, UniProt Q95LI5 22-198; Q95LI8 22-171; Q95LI7 23-181); assay: flow cytometry, cyno primary T cells
T1 construct: whole, on cells; CD3 complex on purified cynomolgus monkey CD3 pan T cells; also called cyno CD3
Procedure: Purified antibodies were confirmed to bind CD3 expressed on cells using the CytoFLEX S or LX flow cytometers (Beckman Coulter). Antibodies were diluted to 25 nM in FACS buffer (PBS+2% FBS) and were incubated with CD3-expressing cells for 30 minutes at 4° C. […] The median fluorescence intensity of the binding signal for each antibody was normalized to the isotype control to obtain a fold over isotype value. An antibody with a fold over isotype (FOI) of ≥10 was considered to be positive for binding.

[2] = target: T2, human CD3e/g (human, UniProt P07766 23-126; P09693 23-116); assay: SPR (Carterra LSA), mAb on chip
T2 construct: Bought soluble protein; also called hCD3e/g; human CD3e/g (Acro CDD-C52W4)
T2 sequence (P07766 23-126, chain 1 of 2): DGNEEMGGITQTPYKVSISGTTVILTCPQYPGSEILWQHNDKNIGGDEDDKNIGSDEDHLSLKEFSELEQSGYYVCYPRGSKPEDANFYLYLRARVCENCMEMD
T2 sequence (P09693 23-116, chain 2 of 2): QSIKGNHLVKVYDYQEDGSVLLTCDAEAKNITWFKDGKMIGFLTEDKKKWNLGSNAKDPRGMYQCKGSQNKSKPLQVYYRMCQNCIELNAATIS
Method in brief: (§1)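 Purified mAbs amine-coupled (EDC/S-NHS) at 10 μg/mL in 10 mM NaOAc pH 4.25 onto an HC-30M chip, with benchmark and negative-control mAbs; analyte flowed over the array. Double-referenced sensorgrams fitted globally to a 1:1 Langmuir model for ka, kd and KD.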

[3] = target: T3, human CD3e/d (human, UniProt P07766 23-126; P04234 22-105); assay: SPR (Carterra LSA), mAb on chip
T3 construct: Bought soluble protein; also called hCD3e/d; human CD3/ed (Sino CT038-H2508H)
T3 sequence (P07766 23-126, chain 1 of 2): as the sequence (P07766 23-126, chain 1 of 2) above
T3 sequence (P04234 22-105, chain 2 of 2): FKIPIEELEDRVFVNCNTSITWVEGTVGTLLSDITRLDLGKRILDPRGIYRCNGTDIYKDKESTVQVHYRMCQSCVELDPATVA
Method in brief: as §1

T1 sequence (Q95LI5 22-198, chain 1 of 3): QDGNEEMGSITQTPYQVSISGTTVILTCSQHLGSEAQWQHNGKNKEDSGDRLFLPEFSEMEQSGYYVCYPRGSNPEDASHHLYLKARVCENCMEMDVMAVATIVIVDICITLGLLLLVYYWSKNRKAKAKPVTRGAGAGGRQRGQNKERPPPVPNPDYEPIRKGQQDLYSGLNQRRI
T1 sequence (Q95LI8 22-171, chain 2 of 3): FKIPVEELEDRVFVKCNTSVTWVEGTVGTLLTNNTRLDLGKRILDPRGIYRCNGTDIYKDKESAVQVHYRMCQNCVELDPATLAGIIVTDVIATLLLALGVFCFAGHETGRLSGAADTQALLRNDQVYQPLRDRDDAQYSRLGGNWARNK
T1 sequence (Q95LI7 23-181, chain 3 of 3): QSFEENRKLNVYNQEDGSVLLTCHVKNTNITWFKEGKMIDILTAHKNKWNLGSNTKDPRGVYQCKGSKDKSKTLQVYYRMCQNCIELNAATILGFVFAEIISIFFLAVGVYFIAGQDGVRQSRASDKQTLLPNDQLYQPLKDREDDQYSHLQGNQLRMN

Row | Kd [2] [µM] | Kd [3] [µM] | Binder | binding result [1]
1 | – | – | mAb 288 (antibody, V domains shown, VH/VL only) VH: EVQLLESGGNLGQPGGSLRLSCAVSGFTFSSYTMSWVRQAPGKGLEWVSAISGSGGRTYYADSVKGRFTISRDNSKNTLYLQMKSLRAEDTAVYYCAKKFSYYYYYMDVWGKGTTVTVSS VL: SYELTQPLSVSVALGQTARITCGGNNIGSKDVHWYQQKPGQAPVLVIYRDSNRPSGIPERFSGSNSGNTATLTISSAQAGDEADYYCQVWDSNTAVFGGGTQLTAL | no binding (tested: FOI <10 (FOI >=10 = positive); 25 nM)
2 | 0.00744 | 0.0196 | mAb 111 (antibody, V domains shown, VH and VL only) VH: EVQLVESGGVLVKTGGSLRLSCVASGFSFKKAWMNWVRQAPGKGLEWVGRIKRNSDGGAADYAAPVKDRFTLSRDDSKNTLYLQMNSLKTEDTAVYYCTTLDSSSWYVGYYYMDVWGKGTTVTVSS VL: DIHMTQSPSSVSASLGDRVTFTCRASQNINNWLAWYQQKPGKAPKLLIYTASSLQSGVPSRFSGSGSGTDFTLTISSLQPDDFATYYCQQAHSLPITFGQGTRLGIK | –
3 | 0.0154 | 0.065 | mAb 127 (antibody, V domains shown, VH and VL only) VH: EVQLVESGGGLVKTGGSHRLSCVASGFSFKKAWMNWVRQAPGKGLEWVGRIKRNSDGGTTDYAAPVKGRFILSRDDSKNTLYLQMNSLKTEDTAVYYCTTLDSSSWYVGYYYMDVWGKGTTVTVSS VL: DIQMTQSPSSVSASVGDRVTITCRASQDINNWLAWYQQKPGKAPKILIYTASNLQSGVPSRFSGSGSGTDFTLTISTLQPEDFATYFCQQAHGLPITFGQGTRLEIK | –
4 | 0.0166 | 0.0561 | mAb 123 (antibody, V domains shown, VH and VL only) VH: DVQLVESGGGTVKTGGSLRLSCVASGFSFKKAWMNWVRQAPGKGLEWVGRIKKNSDDGTADYAAPVKGRFTISRDDSKRTLFLQMNSLQTEDTAVYYCTTLDSSSWFVGYYYMDVWGKGTTVTVSS VL: DIQMTQSPSSVSASVGDRVIITCRASQDINNWLAWYQQKPGKAPKLLIYTASSLQSGVPSRFSGSGSVSDFTLTIDSLQPEDFATYYCQQAHSLPITFGQGTRLEIK | –
5 | 0.00662 | 0.0264 | mAb 129 (antibody, V domains shown, VH and VL only) VH: EVQLVESGGDLVKTGGSLRLSCVASGFSFKKAWMNWVRQAPGKGLEWVGRIKRNTDGGATDYAAPVKDRFTLSRDDSKNTLYLQMNSLKTEDTAVYYCTTLDSSSWYVGYYYMDVWGKGTTVTVSS VL: DIHMTQSPSSVSASLGDRVTFTCRASQDINNWLAWYQQKPGKAPRLLIYTASSLQSGVPSRFSGSGSGTDFTLTISSLQPDDFATYYCQQAHSLPITFGQGTRLGIE | –
6 | – | – | mAb 190 (antibody, V domains shown, VH/VL only) VH: QVQLVESGGGVVQPGRSLRLSCAASGFTFSGYGMHWVRQAPGKGLEWVAIIYYNGKKEYYADSVKGRFTISRDNSKNTLYLQMNSLRAEDTAVYYCTRGEGYNWFDPWGQGTLVTVSS VL: EIVMTQSPATLSVSPGERATLSCRASQSVSSNLAWYQQKPGQAPRLLIYGASTRATGIPARFSGSGSGTEFTLTISSLQSEDFAVYYCKQYNNWPLTFGGGTKVEIK | no binding (tested: FOI <10 (FOI >=10 = positive); 25 nM)
7 | – | – | mAb 227 (antibody, V domains shown, VH/VL only) VH: QEQLVESGGGVVQPGRSLRLSCAASGFIFSSYGMHWVRQAPGKGLEWVAIIWYNGKKRDYADSVKGRFTISRDNSKNTLYLQMNSLRAEDTAVYYCARGLGYNWFDPWGQGTLVTVSS VL: EIVLTQSPDFQSVTPKEKVTITCRASQSIGSSLHWYQQKPDQSPKLLIKYASQSFSGVPSRFSGSGSGTDFTLTINSLEAEDAATYYCHQSSSLPYTFGQGTKLEIK | no binding (tested: FOI <10 (FOI >=10 = positive); 25 nM)
8 | – | – | mAb 211 (antibody, V domains shown, VH/VL only) VH: QVQLVESGGGVVQPGRSLRLSCAASGFTFSGYGMHWVRQAPGKGLEWVAIIYYNGKREYYADSVKGRFTISRDNSKNTLYLQMNSLRAEDTAVYYCTRGEGYNWFDPWGQGTLVTVSS VL: EIVMTQSPATLSVSPGERATLSCRASQSVSSNLAWYQQKPGQAPRLLIYGASTRATGIPARFSGSGSGTEFTLTISSLQSEDFAVYYCKHYNNWPLTFGGGTKVEIK | no binding (tested: FOI <10 (FOI >=10 = positive); 25 nM)
9 | – | – | mAb 223 (antibody, V domains shown, VH/VL only) VH: QVQLVESGGGVVQPGRSLRLSCAASGFTFSGYGMHWVRQAPGKGLEWVAIIYYNGNNRKYADSVKGRFTISRDNSKNMVSLQMNSLRVEDTAIYYCTRGDGYNWFVTWGQGTLVTVSS VL: EIVMTQSPATLSVSPGEGATLSCRASQSVSSNLAWYHQKPGQAPRLLIYGASTRATGIPVRFSGSGSGTEFTLTISSLQSDDFAVYFCQQYNNWPLTFGGGTKVEIK | no binding (tested: FOI <10 (FOI >=10 = positive); 25 nM)
10 | – | – | mAb 231 (antibody, V domains shown, VH/VL only) VH: QEQLVESGGGVVQPGRSLRLSCAASGFTFSSYGMHWVRQAPGKGLEWVAIIYYNGKKKDYADSVKGRFTISRDNSKNTLYLQMNSLRAEDTAVYYCVRGLGYNWFDPWGQGTLVTVSS VL: EIVLTQSPDFQSVTPKEKVTITCRASQSIGSSLHWYQQKPDQSPKLLIKYASQSFSGVPSRFSGSGSGTDFTLTINSLEAEDAATYYCHQSSNLPYTFGQGTKLEIK | no binding (tested: FOI <10 (FOI >=10 = positive); 25 nM)
11 | – | – | mAb 208 (antibody, V domains shown, VH/VL only) VH: QEQLVESGGGVVQPGRSLRLSCAASGFTFSSYGMHWVRQAPGKGLEWVAIIWYNGKKKDYADSVKGRFTISRDNSKSTLYLQMNSLRAEDTAVYYCARGLGYNWFDPWGQGTLVTVSS VL: EIVLTQSPDFQSVTPMEKVTIACRASQNIGSSLHWYQQKPDQSPKLLIKYASQSFSGVPSRFSGSGSGTDFTLTINSLEAEDAATYYCHQSSSFPNTFGQGTKLEIK | no binding (tested: FOI <10 (FOI >=10 = positive); 25 nM)
12 | – | – | mAb 202 (antibody, V domains shown, VH/VL only) VH: QVQLVESGGGVVQPGRSLRLSCAASGFTFSGYGMHWVRQAPGKGLEWVAIIYYNGKKEYYADSVKGRFTISRDNSKNTLYLQMNSLRAEDTAVYFCTRGEGYNWFDPWGQGTLVTVSS VL: EIVMTQSPATLSVSPGERATLSCRASQSVSSNLAWYQQKPGQAPRLLIYGASTRATGIPARFSGSGSGTEFTLTISSLQSEDFAVYYCKQYKNWPLTFGGGTKVEIK | no binding (tested: FOI <10 (FOI >=10 = positive); 25 nM)
13 | – | – | mAb 239 (antibody, V domains shown, VH/VL only) VH: QEKLVESGGGVVQPGRSLRLSCVASGFTFSGFGMHWVRQAPGKGLEWVAIIYYDGKNKYYADSVKGRFTISRDNSKNTLYLQMNSLRAEDTAVYYCVRGPGYNWFDPWGQGTLVTVSS VL: EIVLTQSPDFQSVTPKEKVTITCRASQSIGSSLHWYQQKPDQSPKLLIKYASQSFSGVPSRFSGSGSGTDFTLTINSLEAEDAATYYCHQSSSLPYTFGQGTKLEIK | no binding (tested: FOI <10 (FOI >=10 = positive); 25 nM)
14 | – | – | mAb 207 (antibody, V domains shown, VH/VL only) VH: QVQLVESGGGVVQPGRSLRLSCAASGFTFSGYGMHWVRQAPGKGLEWVAIIYYNGKKEYYADSVKGRFTISRDNSRNTLFLQMNSLRAEDTAIYYCTRGEGYNWFDPWGQGTLVTVSS VL: EIVMTQSPATLSVSPGERATLSCRASQSVSSNLAWYQQKPGQAPRLLIYGASTRATGIPARFSGSGSGTEFTLTISSLLSEDFAVYYCKQYNNWPLTFGGGTKVEIK | no binding (tested: FOI <10 (FOI >=10 = positive); 25 nM)
15 | – | – | mAb 234 (antibody, V domains shown, VH/VL only) VH: QEQLVESGGGVVQPGRSLRLSCAASGFIFSSYGMHWVRQAPGKGLEWVAIIWYNGKKRDYADSVKGRFTISRDNSKNTLYLQMNSLRVEDTAVYYCARGLGYNWFDSWGQGTLVTVSS VL: EIVLTQSPDFQSVTPKEKVTITCRASQSIGSSLHWYQQKPDQSPKLLIKYASQSFSGVPSRFSGSGSGTDFTLTINSLEAEDAATYYCHQSSSLPYTFGQGTKLEIK | no binding (tested: FOI <10 (FOI >=10 = positive); 25 nM)
16 | – | – | mAb 200 (antibody, V domains shown, VH/VL only) VH: QVQLAESGGGVVQPGRSLRLSCAASGFTFSGYGMHWVRQAPGKGLEWVAIIYYNGKKEYYADSVKGRFTISRDNSKNTLYLQMNSLRAEDTAVYFCTRGEGYNWFDPWGQGTLVTVSS VL: EIVMTQSPATLSVSPGERATLSCRASQSVSSNLAWYQQKPGQAPRLLIYGASTRATGIPARFSGSGSGTEFTLTISSLQSEDFAVYYCKQYKNWPLTFGGGTKVEIK | no binding (tested: FOI <10 (FOI >=10 = positive); 25 nM)
17 | – | – | mAb 232 (antibody, V domains shown, VH/VL only) VH: QEQLVESGGGVVQPGRSLRLSCAASGFTFSSYGMHWVRQAPGKGLEWVAIIWYNGRKKDYADSVKGRFTISRDNSKNTLYLQMNSLRAEDTAVYYCARGLGYNWFDPWGQGTLVTVSS VL: EIVLTQSPDFQSVTPMEKVTIACRASQSIGSSLHWYQQKPDQSPKLLIKYASQSFSGVPSRFSGSGSGTDFTLTINSLEAEDAATYYCHQSSSLPYTFGQGTKLEIK | no binding (tested: FOI <10 (FOI >=10 = positive); 25 nM)
18 | 0.00364 | 0.0108 | mAb 49 (antibody, V domains shown, VH and VL only) VH: EVQLVESGGGLVPPGGSLRLSCVASGFTLRSYTMNWVRQAPGQGLEWISYISSTSRTIYYSDSVKGRFTISRDNAKNSLYLQVNSLRDEDTALYYCAREDYYDSSGFDCWGQGTLVTVSS VL: AIRMTQSPSSFSASTGDRVTITCRASQGIFNYLAWYQQKPGKAPKLLIYSTSTLQSGVPSRFSGSGSGTDFTLTIRGLQSEDLATYYCQQYYSFPRTFGQGTKVDIK | –
